Measured values reported in US20230124973.

T1: hTERT (191-306), purified
T1 chain: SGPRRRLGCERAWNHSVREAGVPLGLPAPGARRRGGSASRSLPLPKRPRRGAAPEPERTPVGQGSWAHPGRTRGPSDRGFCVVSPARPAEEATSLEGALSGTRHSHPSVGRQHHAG

B1: IKK2 (2-664) (protein)
chain: SWSPSLTTQTCGAWEMKERLGTGGFGNVIRWHNQETGEQIAIKQCRQELSPRNRERWCLEIQIMRRLTHPNVVAARDVPEGMQNLAPNDLPLLAMEYCQGGDLRKYLNQFENCCGLREGAILTLLSDIASALRYLHENRIIHRDLKPENIVLQQGEQRLIHKIIDLGYAKELDQGSLCTSFVGTLQYLAPELLEQQKYTVTVDYWSFGTLAFECITGFRPFLPNWQPVQWHSKVRQKSEVDIVVSEDLNGTVKFSSSLPYPNNLNSVLAERLEKWLQLMLMWHPRQRGTDPTYGPNGCFKALDDILNLKLVHILNMVTGTIHTYPVTEDESLQSLKARIQQDTGIPEEDQELLQEAGLALIPDKPATQCISDGKLNEGHTLDMDLVFLFDNSKITYETQISPRPQPESVSCILQEPKRNLAFFQLRKVWGQVWHSIQTLKEDCNRLQQGQRAAMMNLLRNNSCLSKMKNSMASMSQQLKAKLDFFKTSIQIDLEKYSEQTEFGITSDKLLLAWREMEQAVELCGRENEVKLLVERMMALQTDIVDLQRSPMGRKQGGTLDDLEEQARELYRRLREKPRDQRTEGDSQEMVRLLLQAIQSFEKKVRVIYTQLSKTVVCKQKALELLPKVEEVVSLMNEDEKTVVRLQEKRQKELWNLLKIACSK

Assays:
[1] = system: hTERT (191-306), purified
[2] = target: T1, hTERT (191-306), purified

Row | Molecule | in vitro kinase assay; phosphorylation site found by mass spectrometry and by Western blotting with Anti-hTERT pT249 [1] | in vitro kinase assay (negative control); phosphorylation sites found by mass spectrometry [2]
1 | CDK1-cyclin B (New England Biolabs) | pT249 was detected from only a sample treated with CDK1 | 
2 | B1 |  | pS206, pS274, pT283 and the like were detected from a sample treated with IKK2
